This note sets out measurements from paper PMC8044208 (2021).

B1: human MLKL pseudokinase domain, as used for the KD measurements (domain or fragment)
chain: QEQIKEIKKEQLSGSPWILLRENEVSTLYKGEYHRAPVAIKVFKKLQAGSIAIVRQTFNKEIKTMKKFESPNILRIFGICIDETVTPPQFSIVMEYCELGTLRELLDREKDLTLGKRMVLVLGAARGLYRLHHSEAPELHGKIRSSNFLVTQGYQVKLAGFELRKTQTSMSLGTTREKTDRVKSTAYLSPQELEDVFYQYDVKSEIYSFGIVLWEIATGDIPFQGCNSEKIRKLVAVKRQQEPLGEDCPSELREIIDECRAHDPSVRPSVDEILKKLSTFSK
B2: Mb(MLKL_32) (protein)
chain: VSSVPTKLEVVAATPTSLLISWDAPAVTVDLYIITYGETGGNSPVQTFEVPGSKSTATISGLSPGVDYTITVYAYSFMYHDYYYPEWSPISINYRT

One experiment addresses Mb(MLKL_26). As to the kind of experiment: FACS; yeast display.
Experiment [1] addresses B1. Nature of the experiment: previously reported.

The Kd is the free concentration of one partner at which half of the binding sites on the other are occupied at equilibrium, for simple one-to-one binding. In the experiment with Mb(MLKL_26), B1 had a dissociation constant Kd of 176 nM.
As to B2, the Kd in experiment [1] was 37.1 nM.
